Data taken from patent publication US12258605B2, “Alkane oxidation by modified hydroxylases” (The California Institute of Technology, priority 2005, dated 2025).

B1: Wild-type BM-3: wild-type cytochrome P450 BM-3 from Bacillus megaterium, SEQ ID NO:1 (protein, listed as Bacillus megaterium)
chain: TIKEMPQPKTFGELKNLPLLNTDKPVQALMKIADELGEIFKFEAPGRVTRYLSSQRLIKEACDESRFDKNLSQALKFVRDFAGDGLFTSWTHEKNWKKAHNILLPSFSQQAMKGYHAMMVDIAVQLVQKWERLNADEHIEVPEDMTRLTLDTIGLCGFNYRFNSFYRDQPHPFITSMVRALDEAMNKLQRANPDDPAYDENKRQFQEDIKVMNDLVDKIIADRKASGEQSDDLLTHMLNGKDPETGEPLDDENIRYQIITFLIAGHETTSGLLSFALYFLVKNPHVLQKAAEEAARVLVDPVPSYKQVKQLKYVGMVLNEALRLWPTAPAFSLYAKEDTVLGGEYPLEKGDELMVLIPQLHRDKTIWGDDVEEFRPERFENPSAIPQHAFKPFGNGQRACIGQQFALHEATLVLGMMLKHFDFEDHTNYELDIKETLTLKPEGFVVKAKSKKIPLGGIPSPSTEQSAKKVRKKAENAHNTPLLVLYGSNMGTAEGTARDLADIAMSKGFAPQVATLDSHAGNLPREGAVLIVTASYNGHPPDNAKQFVDWLDQASADEVKGVRYSVFGCGDKNWATTYQKVPAFIDETLAAKGAENIADRGEADASDDFEGTYEEWREHMWSDVAAYFNLDIENSEDNKSTLSLQFVDSAADMPLAKMHGAFSTNVVASKELQQPGSARSTRHLEIELPKEASYQEGDHLGVIPRNYEGIVNRVTARFGLDASQQIRLEAEEEKLAHLPLAKTVSVEELLQYVELQDPVTRTQLRAMAAKTVCPPHKVELEALLEKQAYKEQVLAKRLTMLELLEKYPACEMKFSEFIALLPSIRPRYYSISSSPRVDEKQASITVSVVSGEAWSGYGEYKGIASNYLAELQEGDTITCFISTPQSEFTLPKDPETPLIMVGPGTGVAPFRGFVQARKQLKEQGQSLGEAHLYFGCRSPHEDYLYQEELENAQSEGIITLHTAFSRMPNQPKTYVQHVMEQDGKKLIELLDQGAHFYICGDGSQMAPAVEATLMKSYADVHQVSEADARLWLQQLEEKGRYAKDVWAG
B2: P450PMO: P450 BM-3 variant, SEQ ID NO:125; 7-7 plus G443A and D698G; propane monooxygenase (protein)
chain: TIKEMPQPKTFGELKNLPLLNTDKPVQALMKIADELGEIFKFEAPGCVTRYISSQRLIKEACDESRFDKNLSQELKFFRDFGGDGLFTSWTHEINWKKAHNILLPSFSQQAMKGYHAMMVDIAVQLVQKWERLNADEHIEVSEDMTRLTLDTIGLCGFNYRFNSFYRDQPHPFIISMVRALDEVMNKPQRANPDDPAYDENKRQCQEDIKVMNDLVDKIIADRKARGEQSDDLLTQMLNGKDPETGEPLDDGNISYQIITFLIAGHETTSGLLSFALYFLVKNPHVLQKVVEEAARVLVDPVPSYKQVKQLKYVGMVLNEALRLWPTFPAFSLYAKEDTVLGGEYPLEKGDEVMVLIPQLHRDKTVWGDDVEEFRPERFENPSAIPQHAFKPFGNGQRACIGQQFALHEATLVLGMMLKHFDFEDHTNYELDIKETLTLKPEAFVVKAKSKKIPLGGIPSPSTGQSAKKVRKKAENAHNTPLLVLYGSNMGTAEGTARDLADIAMSKGFAPQVATLDSHAGNLPREGAVLIVTASYNGHPPDNAKQFVDWLDQASADEVKGVRYSVFGCGDKNWATTYQKVPAFIDETLAAKGAENIADRGEADASDDFEGTYEEWREHMWSDVAAYFNLDIENSEDNKSTLSLQFVDSAADMPLAKMHGAFSTNVVASKELQQPGSARSTRHLEIELPKEASYQEGGHLGVIPRNYEGTVNRVTARFGLDASQQIRLEAEEEKLAHLPLAKTVSVEELLQYVELQDPVTRTQLRAMAAKTVCPPHKVELEALLEKQAYKEQVLAKRLTMLELLEKYPACEMKFSEFIALLPSIRPRYYSISSSPRVDEKQASITVSVVSGEAWSGYGEYKGIASNYLAELQEGDTITCFISTPQSEFTLPKDPETPLIMVGPGTGVAPFRGFVQARKQLKEQGQSLGEAHLYFGCRSPHEDYLYQEELENAQSEGIITLHTAFSRMPNQPKTYVQHVMEQDGKKLIELLDQGAHFYICGDGSQMAPAVEATLMKSYADVHQVSEADARLWLQQLEEKGRYAKDVWAG
modifications: Mutant P450PMO protein sequence
notes: 7-7 plus G443A and D698G; propane monooxygenase

Columns and labels:
[1] = lauric acid; cited from earlier work
[2] = Activity on palmitate; assay type: biochemical
Protocol: To evaluate the fate of the enzyme's original function, P450PMO activity was tested on the long-chain fatty acids laurate and palmitate.

[3] = Halomethane reactions (formaldehyde, PFBHA, GC-ECD): iodomethane; assay type: biochemical; conditions: formaldehyde formation
Protocol: Halomethane reactions: Reactions with chloromethane, bromomethane, and iodomethane were carried out in 1 mL-scale using halomethane-saturated buffer (100 mM phosphate pH 8.0) and 50-500 nM purified protein. 900 μL buffer were added with protein, incubated for 15 seconds, and then added with 100 μL NADPH regeneration solution (100 units/mL IDH, 70 mg/mL isocitrate, 1.5 mg/ml NADP+). Solution were sealed and stirred for 30 minutes at 25° C. To reduce background levels of formaldehyde to a minimum, buffers were prepared using HPLC-grade water and autoclaved twice prior to use. Formaldehyde concentration in the reaction solutions was determined through derivatization with o-(2,3,4,5,6-pentafluorobenzyl)hydroxylamine hydrochloride (PFBHA) and gas chromatography. […] Organic phase was removed, diluted 1/100 v/v, and analyzed on a Shimadzu GC-17A gas chromatograph. […] Quantification was carried out using a calibration curve and solutions at known concentration of formaldehyde. […]
Along with activity on propane, P450PMO also hydroxylates ethane (TTN˜2,500), despite ethane's higher C—H bond energy (101.0 kcal mol^−1 versus 98.6 kcal mol^−1 for propane). […] Reactions with purified P450 variants and the halomethanes were analyzed for formaldehyde formation (FIG. 42). […] Activity on chloromethane was detected at lower levels (0.5-1% of propane activity) and in fewer P450 variants. […]

Molecule	hydroxylation at the ω-1 position [1] [%]	hydroxylated fatty acids formed [2]	iodomethane dehalogenase activity [3]
B1	48		
B2		no detectable amounts of hydroxylated fatty acids	could be detected
